{"source": "paper PMC2911655", "proteins": {"B1": {"name": "Yju3p (Saccharomyces cerevisiae S288C) (protein)", "chain": "MAPYPYKVQTTVPELQYENFDGAKFGYMFWPVQNGTNEVRGRVLLIHGFGEYTKIQFRLMDHLSLNGYESFTFDQRGAGVTSPGRSKGVTDEYHVFNDLEHFVEKNLSECKAKGIPLFMWGHSMGGGICLNYACQGKHKNEISGYIGSGPLIILHPHTMYNKPTQIIAPLLAKFLPRVRIDTGLDLKGITSDKAYRAFLGSDPMSVPLYGSFRQIHDFMQRGAKLYKNENNYIQKNFAKDKPVIIMHGQDDTINDPKGSEKFIQDCPSADKELKLYPGARHSIFSLETDKVFNTVFNDMKQWLDKHTTTEAKP"}}, "substrate": "CCCCCCCC/C=C\\CCCCCCCC(=O)OCC(O)CO", "experiment": "glycerol release, enzymatic glycerol kit, saturation curve", "type": "biochemical, Saccharomyces cerevisiae", "details": "pH 7.5, 37 °C, 20 min, substrate complexed to defatted BSA 1:1"}
{"protein": "B1", "values": [{"measurement": "Km", "value": 260, "unit": "µM"}]}
